The results in this text go back to patent US20180112003A1 (UNIVERSITY OF SOUTHERN CALIFORNIA, published 2018).

Assay [1] deals with T1, human luteinizing hormone receptor (LHR) (human, UniProt P22888 27-699).
T1 construct: Endogenous LHR on human ovarian carcinoma cell lines (ES-2, SKOV3); also called LHR on ES-2 human ovarian carcinoma cells; LHR on SKOV3 cells
Put plainly: flow cytometry on ES-2 human ovarian carcinoma cells; ratio of antibody MFI to isotype MFI. The text has this: (§1) Antibodies against the […] extracellular hormone binding domain of LHR were generated by repeated immunization of 4 week-old-BALB/c and NIH Swiss mice with genetically engineered LHR-Fc. As shown below in FIG. 3, the leader sequence and first part of the human LHR G-protein was used to generate the LHR-Fc used in the immunization and screening methods to generate and identify high binding antibodies. […] A typical flow cytometry screen of hybridomas positive by initial ELISA screen using LHR-Fc coated plates is shown below in FIG. 4 using the ES-2 ovarian carcinoma cell line. […] These few candidate hybridomas were then subcloned by dilution in 96 well plates and expanded for freezing in vials. After further screening by flow cytometry, specific subclones were selected for large scale production using 2L vessels (GRrex, 100L, Wolfson). Filtered supernatants were then subjected to antibody purification using tandon protein A or G and ion exchange chromatography methods performed routinely in the laboratory. Once purified, five antibody subclones designated 8B7-3, 5F4-21, 5B1-1, 2H11-37, and 138-2 were sequenced to facilitate the engineering of single chain genes used for the construction of LHR CARs described below.

Assay [2] has as its target T1, human luteinizing hormone receptor (LHR). Put plainly: flow cytometry screen of LHR-Fc ELISA positive hybridomas on ES-2 ovarian carcinoma cells; ratio of antibody MFI to isotype MFI.
From the text: as §1
A general note: In flow cytometry, cells or beads pass a laser one at a time.

T1 sequence (P22888 27-699 limits assumed): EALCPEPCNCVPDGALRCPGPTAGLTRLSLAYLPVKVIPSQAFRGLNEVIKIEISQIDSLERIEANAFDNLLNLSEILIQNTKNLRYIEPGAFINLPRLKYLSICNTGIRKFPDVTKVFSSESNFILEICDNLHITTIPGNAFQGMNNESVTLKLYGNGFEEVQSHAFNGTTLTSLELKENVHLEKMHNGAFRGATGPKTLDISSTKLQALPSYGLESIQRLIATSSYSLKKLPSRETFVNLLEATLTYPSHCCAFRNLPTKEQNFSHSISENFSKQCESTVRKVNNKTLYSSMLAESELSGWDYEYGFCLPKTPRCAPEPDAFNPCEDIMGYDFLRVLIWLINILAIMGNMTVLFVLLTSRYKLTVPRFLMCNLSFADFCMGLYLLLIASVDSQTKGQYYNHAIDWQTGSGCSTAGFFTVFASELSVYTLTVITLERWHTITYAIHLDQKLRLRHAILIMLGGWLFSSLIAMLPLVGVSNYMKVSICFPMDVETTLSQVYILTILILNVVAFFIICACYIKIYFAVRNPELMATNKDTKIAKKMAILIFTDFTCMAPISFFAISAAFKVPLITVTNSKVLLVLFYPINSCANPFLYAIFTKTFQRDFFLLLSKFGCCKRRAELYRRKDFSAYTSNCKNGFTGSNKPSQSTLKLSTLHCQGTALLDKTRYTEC

B1: LHR Antibody #5F4-21 (antibody, V domains shown)
VH: EVQLQESGPDLVKPSQSLSLTCTVTGYSITSGYGWHWIRQFPGNKLEWMGYIHYSGSTTYNPSLKSRISISRDTSKNQFFLQLNSVTTEDTATYYCARSLRYWGQGTTLTVSS
VL: DIVMTQTPAIMSASPGQKVTITCSASSSVNYMHWYQQKLGSSPKLWIYDTSKLAPGVPARFSGSGSGTSYSLTISSMEAEDAASYFCHQWSSYPYTFGSGTKLEIK
notes: Mouse monoclonal antibody from a hybridoma subclone
B1: the binding result in assay [1] was “binds”.

B2: LHR Antibody #8B7-3 (antibody, V domains shown)
VH: QVKLQQSGPELVKPGASVKISCKASGYSFTGYYMHWVKQSHGNILDWIGYIYPYNGVSSYNQKFKGKATLTVDKSSSTAYMELRSLTSEDSAVYYCARERGLYQLRAMDYWGQGTSVTVSS
VL: DIVLTQTPATLSVTPGDSVSLSCRASQSISNNLHWYQQKSHESPRLLIKNASQSISGIPSKFSGSGSGTDFTLRINSVETEDFGMYFCQQSNSWPYTFGSGTKLEIK
notes: Mouse monoclonal antibody from a hybridoma; also called hybridoma 8B7
For B2, the binding result in assay [2] was “binds”.
